Data reported in paper PMC8954747 (Viruses, 2022).

T1: human Scribble (SCRIB) PDZ3 domain (residues 1002-1093) (human, UniProt Q14160 1002-1093)
T1 construct: also called wild-type SCRIB PDZ3
T1 sequence (looked up): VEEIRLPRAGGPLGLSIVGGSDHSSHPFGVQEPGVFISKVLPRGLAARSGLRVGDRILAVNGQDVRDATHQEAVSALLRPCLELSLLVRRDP

T2: human Scribble (SCRIB) PDZ2 domain (residues 860-950) (human, UniProt Q14160 860-950)
T2 construct: also called PDZ2 WT
T2 sequence (looked up): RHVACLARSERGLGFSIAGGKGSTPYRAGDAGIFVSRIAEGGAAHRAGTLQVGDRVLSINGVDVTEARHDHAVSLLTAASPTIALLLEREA

T3: human Scribble (SCRIB) PDZ4 domain (residues 1099-1203) (human, UniProt Q14160 1099-1203)
T3 sequence (looked up): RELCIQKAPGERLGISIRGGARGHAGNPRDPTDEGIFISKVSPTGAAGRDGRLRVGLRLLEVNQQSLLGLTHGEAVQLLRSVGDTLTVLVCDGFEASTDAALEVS

B1: NS1 ESKV PBM peptide KMARTIESKV (H5N1 A/chicken/Hubei/327/2004), 10-mer (peptide)
peptide: KMARTIESKV
B2: NS1 ESEV PBM peptide KMARTIESEV (H5N1 A/Viet Nam/1194/2004), 10-mer (peptide)
peptide: KMARTIESEV

What was measured:
Assay in all cases: ITC
Details in all cases: both partners purified
[1] = target: T1, human Scribble (SCRIB) PDZ3 domain …
[2] = target: T4, human Scribble (SCRIB) PDZ1 domain (residues 725-815) (human, UniProt Q14160 725-815)
T4 construct: also called PDZ1 WT

[3] = target: T2, human Scribble (SCRIB) PDZ2 domain …
[4] = target: T3, human Scribble (SCRIB) PDZ4 domain …

T4 sequence (Q14160 725-815): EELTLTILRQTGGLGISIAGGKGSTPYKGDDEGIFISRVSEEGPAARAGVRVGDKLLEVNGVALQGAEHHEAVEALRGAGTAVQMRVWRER

Binder | Kd [1] [µM] | stoichiometry N [1] | Kd [2] [µM] | stoichiometry N [2] | Kd [3] [µM] | stoichiometry N [3] | Kd [4] [µM] | stoichiometry N [4]
B1 | 12.1 | 1.1 | 30 | 1.2 | 9.5 | 1.1 |  | 
B2 | 13.1 | 1.1 ± 0.1 | 21.4 | 1.1 ± 0.1 | 18.7 | 1 ± 0.03 | 12.2 | 1 ± 0.1
